Marks after values point to notes of the source that are not given here.
Columns and labels:
[1] = test system: PlGF-mediated angiogenesis in corneal tissues; experiment: Mouse corneal micropocket angiogenesis assay; type: in vivo, C57B16/J mice; details: day 5; for effect on PlGF mediated angiogenesis in corneal tissues: micropellets, 100 ng PlGF with 1 μM peptide
Procedure: The ability of PlGF ligands to block PlGF-mediated angiogenesis in corneal tissues in vivo is investigated. Corneal micropockets are created using a modified von Graefe cataract knife in both eyes of male 5-6-wk-old C57B16/J mice. Micropellets comprised of a sustained release formulation of polyglucuronic acid/polylactic acid containing 100 ng of PlGF or PlGF with 1 μM BP-1, BP-2, BP-3 or BP-4 are implanted into each corneal pocket. Eyes are examined by a slit-lamp biomicroscope on day 5 after pellet implantation. Vessel length and neovascularization are measured.

[2] = biological target: T1, recombinant human Flt-1 fusion protein (Homo sapiens, UniProt P17948); experiment: Free peptide binding and competition ELISA, Flt-1-coated wells; details: free peptide
T1 construct: purchased R & D Systems
T1 sequence (P17948 with tags, fused parts or gaps limits assumed): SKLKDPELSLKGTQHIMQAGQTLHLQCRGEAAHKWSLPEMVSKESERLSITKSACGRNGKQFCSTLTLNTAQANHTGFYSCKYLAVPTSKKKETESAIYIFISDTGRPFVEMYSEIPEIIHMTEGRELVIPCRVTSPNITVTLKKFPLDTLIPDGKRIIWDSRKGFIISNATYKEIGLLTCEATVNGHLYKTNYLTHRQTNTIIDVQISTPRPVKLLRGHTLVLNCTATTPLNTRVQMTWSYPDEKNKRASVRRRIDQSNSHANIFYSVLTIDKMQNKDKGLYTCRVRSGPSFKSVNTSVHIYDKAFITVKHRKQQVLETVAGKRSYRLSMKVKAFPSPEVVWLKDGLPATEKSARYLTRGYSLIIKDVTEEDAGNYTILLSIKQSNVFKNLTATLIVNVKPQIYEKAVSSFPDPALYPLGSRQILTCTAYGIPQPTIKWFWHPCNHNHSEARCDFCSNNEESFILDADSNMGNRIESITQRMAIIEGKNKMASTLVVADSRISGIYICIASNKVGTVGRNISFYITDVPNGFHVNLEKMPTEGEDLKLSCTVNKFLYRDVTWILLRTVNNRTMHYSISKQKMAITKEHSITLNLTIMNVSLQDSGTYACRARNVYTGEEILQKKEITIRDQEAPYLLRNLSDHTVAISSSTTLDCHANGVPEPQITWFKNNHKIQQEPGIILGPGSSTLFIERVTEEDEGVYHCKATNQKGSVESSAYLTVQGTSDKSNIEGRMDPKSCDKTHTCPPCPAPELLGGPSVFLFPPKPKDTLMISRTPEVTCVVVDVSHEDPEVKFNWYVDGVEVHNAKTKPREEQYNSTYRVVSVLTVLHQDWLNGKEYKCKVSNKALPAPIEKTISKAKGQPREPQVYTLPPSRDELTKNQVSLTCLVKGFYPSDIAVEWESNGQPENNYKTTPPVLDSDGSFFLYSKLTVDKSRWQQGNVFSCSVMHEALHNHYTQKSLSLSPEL
Procedure: (§1) Competition assays were done with 2.5 or 25 U/ml heparin (Sigma, St. Louis, Mo.). BP1, 3, 4, and a scrambled version of BP3 (scrBP3) were synthesized with a linker followed by the FLAG epitope ([…] SEQ ID NO:5) at the C-terminus. Thirty minutes after addition of the first reagent, the second reagent was added, followed by another 30 minute incubation. Peptide binding was assessed by probing for the FLAG epitope (Prickett et al., Biotechniques 7:580-9, 1989; Castrucci et al., J. Virol. 66:4647-53, 1992). Absorbance was read at 490 nm.

[3] = test system: MDA-MB-231 human breast cancer cells; experiment: MTT tumor cell viability assay, MDA-MB-231; type: cell-based; details: 24 h
Procedure: (§2) MTT (3-(4,5-dimethylthiazolyl-2)-2,5-diphenyltetrazolium bromide, Sigma) assays were performed under conditions of low serum (1%) to determine PlGF effects on cell viability, the toxicity of the peptides, and their effect on PlGF-mediated breast tumor cell growth (Mosmann, 1983, J Immunol Meth 65:55-63; Modrak et al., 2000, Biochem Biophys Res Commun 268:603-606). Peptide concentration was 1-2 μM, and the concentration of exogenous PlGF was 2 nM. The human breast tumor lines tested were: MDA-MB-231, MDA-MB-468 and MCF-7 (ATCC, Mannasses, Va.). Briefly, 96-well plates were seeded with 5-10×10^4 cells/ml in medium containing 1% fetal bovine serum (FBS). After 24 h, cells were treated with individual peptides at a concentration of 1-2 μM (4 binding peptides), in quadruplicate, and/or rhuPlGF at a 2-nM concentration. After the designated time points, 0.5 mg/ml MTT (5 mg/ml stock diluted 1:10 in RPMI medium with no serum) was added to the wells (Mosmann, 1983). When purple crystals were clearly visible in the cells, and the plate appeared to be fully developed, the reaction was terminated with acid alcohol (0.04M HCl in isopropanol). Absorbance of the dissolved crystals was read at 570 nm. The 24-h time point was chosen because the in vitro effects of PlGF on tumor cell migration were measurable at this time (see wound-healing assay below). […]

[4] = biological target: T2, PlGF (Homo sapiens, UniProt P49763); experiment: Free peptide binding ELISA (FLAG epitope probe), PlGF-coated wells; details: free peptide; BP3, BP4, BP3scr at up to 50 μM
T2 construct: purchased R&D Systems
T2 sequence (P49763 19-170 isoform P49763-3 limits assumed): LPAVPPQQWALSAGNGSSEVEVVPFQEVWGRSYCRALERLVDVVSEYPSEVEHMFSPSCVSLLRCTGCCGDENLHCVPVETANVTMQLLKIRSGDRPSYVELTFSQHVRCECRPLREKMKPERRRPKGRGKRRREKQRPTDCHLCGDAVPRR
Procedure: as §1

[5] = test system: MDA-MB-468 xenografts; type: in vivo, mice; details: 200 μg/dose i.p., twice-weekly; for tumor growth inhibition: after 4 weeks
Procedure: FIG. 5. Treatment of mice bearing MDA-MB-468 xenografts with peptides BP1 or BP3. Mice were treated every 3-4 days with 200 ug BP as described in Methods. Tumor volume was measured 2×/week. *P<0.05 at days 10, 14, 17 and 24 (change in tumor volume (ANOVA)). FIG. 5A—tumors treated with binding peptide 1. FIG. 5B—tumors treated with binding peptide 3.
Mice bearing MDA-MB-468 xenografts (average tumor volume: 0.19 cm^3) were treated with i.p. injections of individual peptides (200 μg/dose) (FIG. 5). After 4 weeks of twice-weekly treatment, tumor growth was inhibited by 49% and 58% in mice treated with BP1 (FIG. 5A) or BP3 (FIG. 5B), respectively. The effect of BP3 on tumor growth was apparent after 2 weeks of treatment (FIG. 5B), whereas the inhibitory effect of BP1 was evident after one week (FIG. 5A). The average changes in individual tumor volumes during treatment with BP1 were significant (P<0.05) at days 10, 14, 17 and 24 (FIG. 5A). Treatment with BP2 was ineffective; tumors continued to grow at almost the same rate as the mock-treated controls (results not shown). BP4 treatment produced a 20% inhibition of tumor growth (results not shown).

[6] = test system: MCF-7 human breast cancer cells; type: cell-based
Procedure: MTT (3-(4,5-dimethylthiazolyl-2)-2,5-diphenyltetrazolium bromide, Sigma) assays were performed under conditions of low serum (1%) to determine PlGF effects on cell viability, the toxicity of the peptides, and their effect on PlGF-mediated breast tumor cell growth (Mosmann, 1983, J Immunol Meth 65:55-63; Modrak et al., 2000, Biochem Biophys Res Commun 268:603-606). Peptide concentration was 1-2 μM, and the concentration of exogenous PlGF was 2 nM. The human breast tumor lines tested were: MDA-MB-231, MDA-MB-468 and MCF-7 (ATCC, Mannasses, Va.). Briefly, 96-well plates were seeded with 5-10×10^4 cells/ml in medium containing 1% fetal bovine serum (FBS). After 24 h, cells were treated with individual peptides at a concentration of 1-2 μM (4 binding peptides), in quadruplicate, and/or rhuPlGF at a 2-nM concentration. After the designated time points, 0.5 mg/ml MTT (5 mg/ml stock diluted 1:10 in RPMI medium with no serum) was added to the wells (Mosmann, 1983). When purple crystals were clearly visible in the cells, and the plate appeared to be fully developed, the reaction was terminated with acid alcohol (0.04M HCl in isopropanol). Absorbance of the dissolved crystals was read at 570 nm. The 24-h time point was chosen because the in vitro effects of PlGF on tumor cell migration were measurable at this time (see wound-healing assay below). These assays were also performed using medium with 10% FBS, with similar results.

[7] = test system: microvessels in PlGF-containing Matrigel plugs; experiment: Matrigel basement membrane plug angiogenesis assay; type: in vivo, nude mice
Source text: To further investigate the effect of PlGF binding peptides on endothelial cell migration and angiogenesis, Matrigel basement membrane plugs containing PlGF, BP1, BP2, or PBS were implanted s.c. on the flanks of nude mice. The number of interior microvessels in the PBS controls was 16.2±11.4/mm^2. PlGF-only implants contained 28.9±17.2/mm^2 (1.8-fold vs. mock-treated implants), and implants with PlGF and BP1 contained only 12.3±13.0 microvessels/mm^2 (P<0.02).

[8] = test system: MDA-MB-468; experiment: Wound-healing (motility) assay, MDA-MB-468; type: cell-based, human
Procedure: (§3) MCF-7, MDA-MB-23 1, and MDA-MB-468 breast tumor cell lines or HECs were seeded onto sterile glass coverslips in Petri dishes or six-well plates. When the cells were 70-80% confluent, the monolayers were scratched with a sterile plastic pipet tip.
(§4) Inhibitor concentrations were 50 μM PD98059 (PD98) (mitogen activated protein kinase-kinase 1 [MEK1] inhibitor), 5 nM Wortmannin (phosphatidyl inositol 3 kinase [PI3K] inhibitor), or human recombinant soluble Flt-1 (sFlt-1) (R&D Systems). […] Cells were pre-incubated with PD98 and Wortmannin for 15-30 min before addition of PlGF. Stained (Wright-Giemsa) and mounted coverslips were examined microscopically. Five to ten 100× fields were evaluated by counting the number of cells separated from the wound edges and which appeared to be migrating toward the center of the wound. Results are reported as the average number of cells migrating into the wound/100× field. In some cases data from separate experiments were combined to accommodate inclusion of various treatments in the tables.
(§5) Antibody concentration was 1 μg/ml. MEK1 inhibitor, PD98059 (PD98), 50 μM. PI3K inhibitor, Wortmannin, 5 nM. […] Values for antibody and inhibitor treatments were from separate experiments which included all relevant controls. […] UT denotes untreated controls. *P<0.01 (ANOVA) compared to UT; † P<0.02 (ANOVA) compared to PlGF only. ‡ P<0.001 (ANOVA) compared to PlGF only.

[9] = test system: MDA-MB-468; experiment: Matrigel cell invasion assay, MDA-MB-468; type: cell-based, human; details: PlGF 0.2 nM ± peptide 2 μg/ml; 48 h
Procedure: (§6) Cellular invasion was determined by addition of 5×10^4cells to growth factor-reduced Matrigel invasion chambers (BD Biosciences Discovery Labware, Bedford, Mass.) (Taylor et al., 2003b; Passaniti et al., 1992, Lab Invest 67, 519-528). Additives to the Matrigel® plugs were pre-incubated together in a total volume of 100 μl PBS at RT for 10 min, after which each additive was added to the Matrigel. Growth factors (2.0 or 0.2 nM), peptide (2 μg/ml), or antibody (1 μg/ml) were added to cells in low serum (0.1% fetal bovine serum [FBS]) medium. Baseline and chemoattractant-based invasion (10% FBS) were included. The number of invading cells was determined by counting the number of cells on the bottom of the invasion chamber membrane after staining at 100× magnification after 24 h (MDA-MB-231) or 48 h (MCF-7, MDA-MB-468). The results of three to five separate experiments are presented.

[10] = test system: MDA-MB-468 human breast cancer cells; experiment: MTT tumor cell viability assay, MDA-MB-468; type: cell-based; details: peptide 2 μM or PlGF 2 nM alone, 24 h
Procedure: as §2

[11] = test system: MCF-7; experiment: Wound-healing (motility) assay, MCF-7; type: cell-based, human
Procedure: as §3, §4, §5

[12] = test system: MDA-MB-231; experiment: Matrigel cell invasion assay, MDA-MB-231; type: cell-based, human; details: 24 h
Procedure: as §6

[13] = test system: MDA-MB-231; experiment: Wound-healing (motility) assay, MDA-MB-231; type: cell-based, human
Procedure: as §3, §4, §5

[14] = test system: MCF-7; experiment: Matrigel cell invasion assay, MCF-7; type: cell-based, human; details: PlGF 0.2 nM ± peptide 2 μg/ml; 48 h
Procedure: as §6

[15] = PlGF 2 nM ± test agent, relative to PlGF-only value
[16] = growth factor PlGF 2 nM ± test agent (Flt-1 2 nM, peptide 2 μM, antibody 1 μg/ml), 18-24 h

In the case of “QEAFNRLTSRMH (listed as Homo sapiens) [BP3]”, the “effect on PlGF mediated angiogenesis in corneal tissues” value [1] is reported as “inhibits”, the “binding to Flt-1 (in words)” value [2] is reported as “No measurable binding” and the “effect on viability of PlGF-containing MDA-MB-231 cultures” value ([3]; PlGF 2 nM + peptide 1-2 μM, 1% serum) is reported as “significant reduction in cell viability”. For the same molecule, the “binding to PlGF (in words)” value [4] was “did not bind detectably”, the “duration of treatment after which effect on tumor growth was apparent” value [5] was 2 weeks and the tumor growth inhibition [5] was 58%. For the same molecule, the “effect on viability after 48 h, peptide alone” value ([6]; peptide alone, 48 h, vs untreated controls) was “lost viability”.

With “RMPYSEHSAPLG (listed as Homo sapiens) [BP4]” the “effect on PlGF mediated angiogenesis in corneal tissues” value [1] was “inhibits”, the “binding to Flt-1 (in words)” value [2] was “No measurable binding” and the “binding to PlGF (in words)” value [4] was “did not bind detectably”. For the same molecule, the tumor growth inhibition [5] was 20% and the “effect on viability of PlGF-containing MCF-7 cultures” value ([6]; PlGF 2 nM + peptide 1-2 μM, 24 h, 1% serum) was “significant reduction in cell viability”.

B1: PlGF: recombinant human PlGF-2, placental growth factor (R&D Systems) (protein)
chain: T2 sequence (P49763 19-170 isoform P49763-3 limits assumed)
For B1, the interior microvessels ([7]; PlGF-containing implants ± BP1, s.c., PBS controls 16.2±11.4) was 28.9±17.2 /mm^2, the “microvessels, fold vs. mock-treated implants” value ([7]; PlGF-only implants) was 1.8 fold and the Relative activity [8, 15] was 100. The “effect on motility (in words)” value ([8]; exogenous PlGF) was “did not significantly affect”, the Migrating cells [8, 16] was 14.7 ± 9.8 cells/100× field and the “Average fold-change in the number of cells on the membrane compared to untreated controls” value (“Average fold-change in the number” below) [9] was 1.8 ± 0.3 fold. For the same molecule, the “angiogenic response in cornea” value ([1]; micropellets with 100 ng PlGF) was “induces a strong angiogenic response”, the “effect on cell viability / cell number, agent alone” value [10] was “increased cell numbers” and the Relative activity [11, 15] was 100. For the same molecule, the increase in motility ([11]; exogenous PlGF) was 1.8-2.1 fold, the Migrating cells [11, 16] was 22.1 ± 13.4* cells/100× field and the “effect on cell viability / cell number, agent alone” value ([3]; peptide 2 μM or PlGF 2 nM alone) was “increased cell numbers”. The “Average fold-change in the number” value ([12]; PlGF 0.2 nM ± peptide 2 μg/ml) was 4.0 ± 2.2 fold, the invading cells ([12]; PlGF 0.2 nM) was 28±12 cells and the invading cells ([12]; PlGF 2.0 nM) was 30±13.7 cells. For the same molecule, the increased invasion ([12]; PlGF at both 2.0 and 0.2 nM) was roughly 3 fold, the Relative activity [13, 15] was 100 and the increase in motility ([13]; exogenous PlGF) was 1.8-2.1 fold. The Migrating cells ([13]; growth factor PlGF 2 nM ± test agent (Flt-1 2 nM, peptide 2 μM, antibody 1 μg/ml, PD98059 50 μM, Wortmannin 5 nM), 18-24 h) was 42.0 ± 13.3* cells/100× field and the “Average fold-change in the number” value [14] was 2.1 ± 0.7 fold.
